The source of these data is PMC4258057.

Series [1] has as its target T1, BldD (Saccharopolyspora erythraea A226?) (UniProt A4FBF9).
T1 sequence: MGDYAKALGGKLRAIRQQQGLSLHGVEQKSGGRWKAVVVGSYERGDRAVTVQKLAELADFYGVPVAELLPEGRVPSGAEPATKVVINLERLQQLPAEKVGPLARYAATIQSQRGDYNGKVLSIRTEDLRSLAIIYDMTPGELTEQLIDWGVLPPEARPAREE
As to the kind of experiment: EMSA. The settings on record: 10 mM Tris pH 7.5, 5 mM MgCl2, 50 mM EDTA (so in the source), 60 mM KCl, 10 mM DTT, 10% glycerol, 150 ng probe (legend: 10 ng), 0.5-4 uM protein; on ice 10 min; 8% …. On the technique in general: Mobility shift assays separate free from complexed probe on a gel.

Series [2] addresses T2, SACE_7301 (Saccharopolyspora erythraea A226?) (UniProt A4FQY4).
T2 sequence: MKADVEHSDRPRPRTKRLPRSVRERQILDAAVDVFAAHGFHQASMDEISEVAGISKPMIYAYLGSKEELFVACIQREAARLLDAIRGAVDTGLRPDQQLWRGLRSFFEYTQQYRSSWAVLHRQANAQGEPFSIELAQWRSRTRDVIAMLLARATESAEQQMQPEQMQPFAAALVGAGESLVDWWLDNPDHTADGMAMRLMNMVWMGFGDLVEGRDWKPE
As to the kind of experiment: EMSA. The note with it: 10 mM Tris pH 7.5, 5 mM MgCl2, 50 mM EDTA (so in the source), 60 mM KCl, 10 mM DTT, 10% glycerol, 150 ng probe (legend: 10 ng), 0.5-4 uM protein; on ice 10 min; 8% ….

As for “GCGAGTGTCCGTTCGAGTGGCGGCTTGCGCCCGATGCTAGTCGCGGTTGATCGGCGATCGCAGGTGCACGCGGTCGATCTTGACGGCTGGCGAGAGGTGCGGGGAGGATCTGACCGACGCGGTCCACACGTGGCACCGCGATGCTGTTGTGGGCTGGACAATCGTGCCGGTTGGTAGGATCCAGCG (double strand) [PermE promoter fragment]”, the binding result in series [1] and in series [2] was “binds” throughout.
On to “GCGTCCCCCTACTCGACGACCACGCAATGGGCGAACAATATAGGAAGGATCAAGAGGTTGACATCGCCTCGTCGAGCCAACGAACCTGTGAACATCTGCATGTTGACAAGATCAACGGCGGCTACCTACTGTGGTGGCCCAGTGACGGGTTGCCGCACATCGCGCTGGGGAGATTCTTTGAATTTCGCCCGTAGCACCGACCTGGAAAGCGAGCAAATGCTCCG (double strand) [PeryAI promoter fragment]”, for which the binding result in series [1] and in series [2] was “binds” in each case.
